How the values were obtained:
KO_3rd loop [1] = assay: flow cytometry, CHO cells transiently transfected with the construct, 6C7 at 0.05 µg/ml, dot plot SSC-A against PE-A
KO_1st loop [2] = assay: as above
KO_N-term [3] = assay: as above
KO_3rd loop [4] = assay: flow cytometry, CHO cells transiently transfected with the construct, 6C7 at 0.1 µg/ml, dot plot SSC-A against PE-A
KO_1st loop [5] = assay: as above
KO_N-term [6] = assay: as above

- number in the positive gate (percent of cells) (KO_3rd loop [1]): 47
- number in the positive gate (percent of cells) (KO_1st loop [2]): 45.2
- number in the positive gate (percent of cells) (KO_N-term [3]): 49.2
- number in the positive gate (percent of cells) (KO_3rd loop [4]): 52.8
- number in the positive gate (percent of cells) (KO_1st loop [5]): 50.1
- number in the positive gate (percent of cells) (KO_N-term [6]): 52.8
B1: 6C7 (antibody, V domains shown)
VH: QVQLVESGGGVVQPGRSLRLSCAASGFTFSNYVMHWVRQAPGKGLEWVAVIWYDGSNKYYADSVKGRFTISRDNSKNTLSLQMNSLRAEDTAVYYCERGEGYYGSGSRYRGYYYGMDVWGQGTTVTVSS
VL: DIQMTQSPSSLSASVGDRVTITCRASQGIRTDLGWYQQKPGKAPKRLIYAASSLQSGVPSRFSGSGSGTEFTLTISSLQPEDFATYYCLQHNSYPRTFGQGTKVEIK

From US20140314784A1
